Assay results as given in PMC5302815.

Target: T1, FinR (Pseudomonas aeruginosa PAO1) (UniProt Q9HYK6)
T1 sequence: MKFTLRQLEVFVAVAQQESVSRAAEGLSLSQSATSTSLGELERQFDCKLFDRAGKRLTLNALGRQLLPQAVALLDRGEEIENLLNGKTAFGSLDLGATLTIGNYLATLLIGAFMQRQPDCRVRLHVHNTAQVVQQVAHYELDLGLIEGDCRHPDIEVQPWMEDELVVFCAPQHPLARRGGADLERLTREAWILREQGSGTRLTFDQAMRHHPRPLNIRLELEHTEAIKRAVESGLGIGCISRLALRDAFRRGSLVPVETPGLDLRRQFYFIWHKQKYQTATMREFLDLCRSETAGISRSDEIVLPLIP
Test: EMSA
Conditions: EMSA: 20 mM Tris-HCl pH 8.0, 50 mM KCl, 4 mM MgCl2, 0.5 mM EDTA, 0.02 mg/ml BSA, 5 mM DTT, 10% glycerol, 200 ng poly(dI-dC), 3 fmol probe in 25 ul, 25 C …

Sequence	binding
AGACGCTCTCCTGCTGGGCCACGGCGACGAACACCTCGAGCTGGCGGAGGGTGAATTTCATCCAGGCTTCCTCGTCTAGAGCGAAAGGCCCCGCGACATTTTGCCGTTCCGTCGGCGGGGTTGGCTCGGTTATCCTTGCGCCCCGTCCGCGGGAGCGATGGGAGCCCTCGGCGGCCGGCGGCCGACCGATATCGTGTTATCCC (double strand) [EBI62-EBI69 fragment (without FinR site)]	no binding
CGATATCGTGTTATCCCATATCCATATTCTGGATAAGCATTATCCAGACAATTCATTTTGCGGATATTTTGGCAACCGATAAAATGCCGCGCAACTGCGTCACGTCTGCTGCTGTTGGTGTGCGCCCGCGTTTTCCTAGGAGTCTTTGATGAGCAATCTGTACACCGAGCGCGTTCTCAGCGTGCACCACTGGAACGACACCCTGTTCAGCT (double strand) [EBI61-EBI70 fragment (with FinR site)]	binds
